The source of these data is paper PMC10216145.

For the data set, the target named is thrombin (UniProt P00734;P00734 328-363;364-622). Description: electrochemical aptasensor (DPV); immobilized aptamer; signal suppression on thrombin binding; LOD 0.26 fM, range 1.0 fM to 1.0 uM (abstract), not a Kd; Thrombin incubation 40 min at ambient temperature, wash with PBS; DPV in 25 mM PBS pH 7.0, -0.1 to 0.5 V.

B1: TBA (thrombin aptamer) (ssDNA)
DNA: GGTTGGTGTGGTTGG
modifications: 5'-SH-(CH2)6
B1: the binding result is on record as “binds”.
